Article PMC9360328, “Tenuous Transcriptional Threshold of Human Sex Determination. I. SRY and Swyer Syndrome at the Edge of Ambiguity”

Molecular target: SRY HMG box WT (Homo sapiens, UniProt Q05066 56-141)
Assay: FRET titration; 15 C, 25 nM DNA; FRET titration: 10 mM potassium phosphate, 10 mM Tris-HCl, 140 mM KCl, 1 mM EDTA, 1 mM DTT, pH 8.4, 15 C, 25 nM DNA; PGE: 10 nM DNA, 20 nM protein, 0.5x TBE, 4
Settings: protein: recombinant; label: 5'-6-FAM (hexanyl linker) on upper strand; 5'-TAMRA (hexanyl linker) on lower strand; blunt

SRY HMG box WT, sequence (Q05066 56-141): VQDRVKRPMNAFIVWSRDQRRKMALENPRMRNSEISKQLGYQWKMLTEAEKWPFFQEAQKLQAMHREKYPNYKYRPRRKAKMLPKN

B1: 15-bp consensus SRY site, FRET-labeled (dsDNA)
DNA 1: TCGGTGATTGTTCAG
DNA 2: CTGAACAATCACCGA
Kd: 10 ± 3 nM
